Source: publication PMC7921410, “Structure of mammalian Mediator complex reveals Tail module architecture and interaction with a conserved core” (Nature Communications, 2021)

How the values were obtained:
[1] = molecular target: T1, MED1 (mouse (Mus musculus; endogenous in CH12), UniProt Q925J9 1-1575); experiment: cryo-EM structure; endogenous mouse Mediator immunopurified from CH12 nuclear extract through 3×FLAG-MED19 or 3×FLAG-MED25; eluted in 50 mM HEPES pH 7.9, 100 mM KCl, 5% glycerol, 1 mM EDTA, 0.005% NP-40; map at 4.0 Å overall, focused refinement of the MED1 and knob/hook ends (6-10 Å); conditions: both partners purified
T1 construct: MED1, Mus musculus, endogenous Middle module subunit of Mediator; only a partial model of the folded N-terminal portion was built; Partial model only; this part of the map is at about 6-8 Å; also called Mediator subunit MED1; source: endogenous, CH12 mouse B lymphoma nuclear extract; immunopurified as part of Mediator (FLAG M2 agarose, FLAG peptide elution)

[2] = molecular target: T2, MED4 (mouse (Mus musculus; endogenous in CH12), UniProt Q9CQA5 1-270); experiment: as above; conditions: both partners purified
T2 construct: MED4, Mus musculus, endogenous Middle module subunit of Mediator; source: endogenous, CH12 mouse B lymphoma nuclear extract; immunopurified as part of Mediator (FLAG M2 agarose, FLAG peptide elution)
T2 sequence (looked up): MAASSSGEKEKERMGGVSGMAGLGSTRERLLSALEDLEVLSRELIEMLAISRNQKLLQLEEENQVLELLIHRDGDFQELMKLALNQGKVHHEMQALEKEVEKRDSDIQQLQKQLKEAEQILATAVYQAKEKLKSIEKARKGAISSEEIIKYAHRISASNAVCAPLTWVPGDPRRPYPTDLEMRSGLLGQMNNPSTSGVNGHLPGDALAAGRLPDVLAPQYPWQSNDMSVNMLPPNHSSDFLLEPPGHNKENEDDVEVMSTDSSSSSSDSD

T1 sequence (Q925J9 whole entry): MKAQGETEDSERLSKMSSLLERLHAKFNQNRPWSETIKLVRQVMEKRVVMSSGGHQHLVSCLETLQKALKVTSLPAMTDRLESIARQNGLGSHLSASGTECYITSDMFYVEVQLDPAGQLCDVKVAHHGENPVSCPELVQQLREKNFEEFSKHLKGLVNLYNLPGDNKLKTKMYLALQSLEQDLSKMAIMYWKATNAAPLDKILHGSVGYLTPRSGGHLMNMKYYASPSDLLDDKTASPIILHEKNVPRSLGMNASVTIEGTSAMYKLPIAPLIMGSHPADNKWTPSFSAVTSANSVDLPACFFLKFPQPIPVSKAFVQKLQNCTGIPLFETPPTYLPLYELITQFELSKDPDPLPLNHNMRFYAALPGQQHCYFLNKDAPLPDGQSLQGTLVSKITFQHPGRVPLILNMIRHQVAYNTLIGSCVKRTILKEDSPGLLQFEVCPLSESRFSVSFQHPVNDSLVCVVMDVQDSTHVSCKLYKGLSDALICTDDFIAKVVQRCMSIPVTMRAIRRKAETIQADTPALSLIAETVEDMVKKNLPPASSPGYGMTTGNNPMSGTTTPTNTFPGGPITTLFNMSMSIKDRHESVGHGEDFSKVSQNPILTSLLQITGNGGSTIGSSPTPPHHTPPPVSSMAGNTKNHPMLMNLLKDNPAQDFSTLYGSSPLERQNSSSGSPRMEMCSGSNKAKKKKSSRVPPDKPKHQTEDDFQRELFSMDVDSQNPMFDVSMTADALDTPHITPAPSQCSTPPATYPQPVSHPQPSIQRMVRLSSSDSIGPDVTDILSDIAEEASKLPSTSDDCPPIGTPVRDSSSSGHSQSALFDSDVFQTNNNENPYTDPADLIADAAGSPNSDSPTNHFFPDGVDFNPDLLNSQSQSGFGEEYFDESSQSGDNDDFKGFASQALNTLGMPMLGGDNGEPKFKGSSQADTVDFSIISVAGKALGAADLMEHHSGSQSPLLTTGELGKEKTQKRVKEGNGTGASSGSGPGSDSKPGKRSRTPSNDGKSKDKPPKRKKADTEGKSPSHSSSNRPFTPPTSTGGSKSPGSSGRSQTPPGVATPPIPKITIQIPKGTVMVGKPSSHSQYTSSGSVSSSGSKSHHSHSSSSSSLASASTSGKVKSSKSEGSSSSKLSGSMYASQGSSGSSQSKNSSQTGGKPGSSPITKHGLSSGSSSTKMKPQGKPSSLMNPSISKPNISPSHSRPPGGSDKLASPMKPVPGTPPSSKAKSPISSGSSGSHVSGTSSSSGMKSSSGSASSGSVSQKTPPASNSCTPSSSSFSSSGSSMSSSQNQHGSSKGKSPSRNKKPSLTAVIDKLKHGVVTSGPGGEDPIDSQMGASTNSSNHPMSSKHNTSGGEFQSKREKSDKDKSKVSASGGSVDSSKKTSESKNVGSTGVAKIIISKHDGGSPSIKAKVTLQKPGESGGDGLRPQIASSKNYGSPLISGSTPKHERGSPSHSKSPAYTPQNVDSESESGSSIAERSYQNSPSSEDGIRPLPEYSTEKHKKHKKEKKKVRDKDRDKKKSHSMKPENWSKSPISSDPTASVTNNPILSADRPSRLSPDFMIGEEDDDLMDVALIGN

B1: MED9 (natural protein, mouse (Mus musculus; endogenous in CH12), UniProt Q8VCS6 1-142, looked up)
chain: MASSGVAGGRQAEDTLQPPPELLPESKPPPPPQPLPVAALPPPAAPRPQSPAGAKEENYSFLPLVHNVIKCMDKDSPDLHQDLNALKTKFQELRKLIGTMPGIHVSPEQQQQQLHSLREQVRTKNELLQKYKSLCMFEIPKD
notes: MED9, Mus musculus, endogenous Middle module subunit of Mediator; source: endogenous, CH12 mouse B lymphoma nuclear extract; immunopurified as part of Mediator (FLAG M2 agarose, FLAG peptide elution)
binding result [1]: binds
binding result [2]: binds
